# Measurements from patent publication US20220290120A1.
# Legend:
# [1] = molecular target: Cas9 nickase (nCas9) (Streptococcus pyogenes) (UniProt Q99ZW2); assay: cell-based or functional assay
# [2] = molecular target: catalytically inactive Cas9 (dCas9) (Streptococcus pyogenes) (UniProt Q99ZW2); assay: cell-based or functional assay
substance,measurement,setting,value
AcrIIA4 anti-CRISPR peptide,"average percent of qPCR-confirmed edited cells with nCas9 Plasmid 4 (+acrIIA4), per sgRNA unit pair; without acrIIA4 (Plasmid 5) between 73% and 100%",[1],0.7 to 5.9%
same,percent enzyme expression of gusA after dCas9 induction from Plasmid 6 (with acrIIA4); X-Gluc assay in E. coli,[2],0%
same,percent enzyme expression of lacZ after dCas9 induction from Plasmid 6 (with acrIIA4); LacZ blue white screening in E. coli,[2],27.3%
same,percent expression of flhC after dCas9 induction from Plasmid 6 (with acrIIA4); swimming motility assay in E. coli,[2],100%
